Consider 37 sequences from the supplement of paper PMC7877785.

± gives the uncertainty stated by the source.

The series is described as follows: self-splicing fitness, log relative to wild type (ln ratio); higher = more splicing; Tetrahymena group I intron in knt gene, E. coli kanamycin selection, DiMSum; sequences stand for … in CUCUCU…GGAGGGAAAAGUUAUCAGGCAUGCACCUGGUAGCUAGUCUUUAAACCAAUAGAUUGCAUCGGUUUAAAAGGCAAGACCGUCAAAUUGCGGGAAAGGGGUCAACAGCCGUUCAGUACCAAGUCUCAGGGGAAACUUUGAGAUGGCCUUGCAAAGGGUAUGGUAAUAAGCUGACGGACAUGGUCCUAACCACGCAGCCAAGUCCUAAGUCAACAGAUCUUCUGUUGAUAUGGAUGCAGUUCACAGACUAAAUGUCGGUCGGGGAAGAUGUAUUCUUCUCAUAAGAUAUAGUCGGACCUCUCCUUAAUGGGAGCUAGCGGAUGAAGUGAUGCAACACUGGAGCCGCUGGGAACUAAUUUGUAUGCGAAAGUAUAUUGAUUAGUUUUGGAGUACUCGUGGUCG
In a few lines: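 Colonies from six replicate transformations of E. coli BL21(DE3) were pooled and amplicon-sequenced on an Illumina HiSeq 2500. The library placed an intron with all eight P1ex-region nucleotides randomised inside the knt kanamycin-resistance gene on pET-22b(+), and cells grew overnight at 37°C or 30°C on LB agar with or without 25 μg/mL kanamycin (plus 100 μg/mL carbenicillin, 50 μM IPTG, 0.2% rhamnose). Fitness is the DiMSum error-weighted combination of wild-type-normalised replicate fold changes, kanamycin versus none.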

On to GCUCAGCAAUAUUACGAGCC, for which the “self-splicing fitness (ln)” value is -3.98 ± 0.31 (30 °C) and -3.64 ± 0.39 (37 °C).

As for CCAAAGCAAUAUUACGCUCU, the “self-splicing fitness (ln)” value (30 °C) is -3.95 ± 0.27 and the “self-splicing fitness (ln)” value (37 °C) is -2.95 ± 0.23.

As to UUGCAGCAAUAUUACGUCGU, the “self-splicing fitness (ln)” value is -1.8 ± 0.16 (30 °C) and -1.17 ± 0.2 (37 °C).

For AGUGAGCAAUAUUACGACUA, the “self-splicing fitness (ln)” value reads like this: (30 °C) -1.06 ± 0.17; (37 °C) -0.32 ± 0.15.

As to CAAUAGCAAUAUUACGCUUC, the “self-splicing fitness (ln)” value (30 °C) is -4.65 ± 0.36 and the “self-splicing fitness (ln)” value (37 °C) is -2.95 ± 0.35.

In the case of GAAUAGCAAUAUUACGUAAC, the “self-splicing fitness (ln)” value (30 °C) is -0.941 ± 0.11 and the “self-splicing fitness (ln)” value (37 °C) is -1.63 ± 0.12.

Take AAACAGCAAUAUUACGUUCU: the “self-splicing fitness (ln)” value (30 °C) was -0.831 ± 0.061 and the “self-splicing fitness (ln)” value (37 °C) was -0.0204 ± 0.077.

Turning to CGAUAGCAAUAUUACGGCUU, the “self-splicing fitness (ln)” value runs as follows: (30 °C) -2.67 ± 0.17; (37 °C) -1.51 ± 0.19.

Regarding AGUGAGCAAUAUUACGACCU, the “self-splicing fitness (ln)” value is, setting by setting: (30 °C) -1.32 ± 0.15; (37 °C) -0.41 ± 0.2.

CCCAAGCAAUAUUACGUACA: the “self-splicing fitness (ln)” value (30 °C) was -2.94 ± 0.16 and the “self-splicing fitness (ln)” value (37 °C) is -3.39 ± 0.23.

Consider CCAUAGCAAUAUUACGGUGC, for which the “self-splicing fitness (ln)” value runs as follows: (30 °C) -3.09 ± 0.17; (37 °C) -2.61 ± 0.25.

For the sequence AUUAAGCAAUAUUACGCGUG, the “self-splicing fitness (ln)” value (30 °C) was -0.804 ± 0.067 and the “self-splicing fitness (ln)” value (37 °C) was -0.697 ± 0.081.

For UGAAAGCAAUAUUACGUAGU, the “self-splicing fitness (ln)” value reads like this: (30 °C) -3.96 ± 0.26; (37 °C) -2.16 ± 0.18.

As to CAGCAGCAAUAUUACGUCUU, the “self-splicing fitness (ln)” value reads like this: (30 °C) -0.473 ± 0.053; (37 °C) 0.3 ± 0.07.

Take GCGGAGCAAUAUUACGAGGA: the “self-splicing fitness (ln)” value is, setting by setting: (30 °C) -2.26 ± 0.47; (37 °C) -2.66 ± 0.37.

As to UAAUAGCAAUAUUACGUCGU, the “self-splicing fitness (ln)” value was -2.91 ± 0.34 (30 °C) and -0.94 ± 0.23 (37 °C).

For the sequence AUCUAGCAAUAUUACGAUCC, the “self-splicing fitness (ln)” value is, setting by setting: (30 °C) -1.97 ± 0.18; (37 °C) -0.573 ± 0.26.

As for GGAAAGCAAUAUUACGCAAC, the “self-splicing fitness (ln)” value was -3.25 ± 0.24 (30 °C) and -1.02 ± 0.23 (37 °C).

Consider ACGGAGCAAUAUUACGGAGG, for which the “self-splicing fitness (ln)” value (30 °C) was -4.47 ± 0.46 and the “self-splicing fitness (ln)” value (37 °C) was -1.69 ± 0.19.

Turning to GAUCAGCAAUAUUACGGGCU, the “self-splicing fitness (ln)” value by setting is: (30 °C) -1.98 ± 0.085; (37 °C) -1.4 ± 0.1.

On to CGUGAGCAAUAUUACGAUAA, for which the “self-splicing fitness (ln)” value is -4.37 ± 0.39 (30 °C) and -2.68 ± 0.23 (37 °C).

As to GGAUAGCAAUAUUACGGCUA, the “self-splicing fitness (ln)” value (30 °C) is -0.0854 ± 0.16 and the “self-splicing fitness (ln)” value (37 °C) was -0.532 ± 0.14.

Take UGGAAGCAAUAUUACGACGA: the “self-splicing fitness (ln)” value runs as follows: (30 °C) 0.0371 ± 0.18; (37 °C) -0.862 ± 0.15.

Regarding UGGUAGCAAUAUUACGUGAU, the “self-splicing fitness (ln)” value (30 °C) is -2.76 ± 0.25 and the “self-splicing fitness (ln)” value (37 °C) was -1.34 ± 0.16.

As to GUGGAGCAAUAUUACGUGCA, the “self-splicing fitness (ln)” value is -2.14 ± 0.17 (30 °C) and -1.17 ± 0.16 (37 °C).

Regarding UGCCAGCAAUAUUACGGUUA, the “self-splicing fitness (ln)” value is -0.355 ± 0.059 (30 °C) and 0.213 ± 0.066 (37 °C).

For the sequence UGGUAGCAAUAUUACGUAGA, the “self-splicing fitness (ln)” value was -2.54 ± 0.17 (30 °C) and -1.16 ± 0.14 (37 °C).

As for AUUCAGCAAUAUUACGGGUU, the “self-splicing fitness (ln)” value is -2.8 ± 0.17 (30 °C) and -1.75 ± 0.16 (37 °C).

With GAGUAGCAAUAUUACGAUGG, the “self-splicing fitness (ln)” value was -2.33 ± 0.3 (30 °C) and -0.76 ± 0.28 (37 °C).

As for AAGAAGCAAUAUUACGGUGG, the “self-splicing fitness (ln)” value is -2.93 ± 0.13 (30 °C) and -1.98 ± 0.13 (37 °C).

As to AUGCAGCAAUAUUACGAGCC, the “self-splicing fitness (ln)” value (30 °C) was -2.69 ± 0.2 and the “self-splicing fitness (ln)” value (37 °C) is -0.935 ± 0.18.

As to UCCGAGCAAUAUUACGUACC, the “self-splicing fitness (ln)” value by setting is: (30 °C) -2.2 ± 0.2; (37 °C) -1.93 ± 0.37.

With AUUAAGCAAUAUUACGCGGA, the “self-splicing fitness (ln)” value runs as follows: (30 °C) -2.44 ± 0.2; (37 °C) -0.491 ± 0.15.

Turning to UUAGAGCAAUAUUACGAUAU, the “self-splicing fitness (ln)” value is -1.72 ± 0.18 (30 °C) and -1.54 ± 0.23 (37 °C).

In the case of GUCGAGCAAUAUUACGUAGA, the “self-splicing fitness (ln)” value reads like this: (30 °C) -2.65 ± 0.17; (37 °C) -1.88 ± 0.24.

For the sequence CAAAAGCAAUAUUACGUCAG, the “self-splicing fitness (ln)” value runs as follows: (30 °C) -0.464 ± 0.062; (37 °C) -0.392 ± 0.075.

UGCAAGCAAUAUUACGACCG: the “self-splicing fitness (ln)” value by setting is: (30 °C) 0.118 ± 0.086; (37 °C) 0.563 ± 0.13.
